Laboratory results published in patent publication US20240209107A1 (Sanofi, published 2024).

T1: human OX40 on the surface of cells (HEK293 cells expressing human OX40, jurkat cells engineered to express … (human, UniProt P43489 29-277))
T1 construct: whole, on cells; also called huOX40
T1 sequence (looked up): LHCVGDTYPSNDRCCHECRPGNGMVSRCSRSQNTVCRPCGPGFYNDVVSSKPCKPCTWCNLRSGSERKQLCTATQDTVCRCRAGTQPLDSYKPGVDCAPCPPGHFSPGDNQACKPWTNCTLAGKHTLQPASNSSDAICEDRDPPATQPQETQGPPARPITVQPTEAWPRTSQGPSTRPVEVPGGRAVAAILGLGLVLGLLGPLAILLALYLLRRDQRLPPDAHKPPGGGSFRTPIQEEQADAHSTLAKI

T2: human OX40 (10481-H08H, Sino Biological), recombinant (human, UniProt P43489 29-216)
T2 construct: Bought protein
T2 sequence (looked up): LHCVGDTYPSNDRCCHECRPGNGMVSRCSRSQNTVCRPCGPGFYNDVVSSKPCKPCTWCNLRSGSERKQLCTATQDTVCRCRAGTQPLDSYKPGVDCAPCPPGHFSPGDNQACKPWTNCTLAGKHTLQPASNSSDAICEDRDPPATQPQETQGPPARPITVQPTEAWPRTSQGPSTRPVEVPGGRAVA

T3: Human OX40 (amino acids 29-170 of human OX40) (human, UniProt P43489 29-170)
T3 construct: range 29-170
T3 sequence (looked up): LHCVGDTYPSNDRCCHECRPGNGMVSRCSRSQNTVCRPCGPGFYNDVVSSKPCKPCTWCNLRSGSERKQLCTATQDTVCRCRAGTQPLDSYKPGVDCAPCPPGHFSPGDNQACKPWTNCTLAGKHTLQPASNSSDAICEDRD


How the values were obtained:
[1] = molecular target: T4, human FcRn (Immunitrack, ITF01-200) (human, UniProt P55899 24-297; P61769 21-119); assay: SPR (Biacore 8K), FcRn captured on CAP chip, bispecific as analyte, pH 6.0, steady state
T4 construct: captured on a Series S Sensor Chip CAP; also called recombinant human FcRN

[2] = molecular target: T1, human OX40 on the surface of cells …; assay: flow cytometry on HEK293 cells expressing human OX40; anti-human IgG Fc PE secondary; MFI
[3] = molecular target: T2, human OX40 (10481-H08H, Sino …); assay: SPR (Biacore 8K), bispecific captured by anti-human Fc, antigen as analyte, 1:1 model
[4] = molecular target: T5, human CD28 (CD28-3910H, Creative Bio Mart), recombinant (human, UniProt P10747 19-152); assay: as above
T5 construct: Bought protein

[5] = molecular target: T6, cyno OX40 (internal production), recombinant (cynomolgus monkey); assay: as above
T6 construct: also called Cynomolgus Monkey OX40

[6] = molecular target: T7, CD28-His (amino acids 19-136 of human CD28) (human, UniProt P10747 19-136); assay: complex formation, SEC, crystal structure
T7 construct: Expressed in Expi293 cells, purified by HisTrap and SEC; also called Human CD28 Amino acids 19-136; not shown: His tag

[7] = molecular target: T3, Human OX40 (amino acids 29-170 of human …); assay: structure of the complex

T5 sequence (P10747 19-152 limits assumed): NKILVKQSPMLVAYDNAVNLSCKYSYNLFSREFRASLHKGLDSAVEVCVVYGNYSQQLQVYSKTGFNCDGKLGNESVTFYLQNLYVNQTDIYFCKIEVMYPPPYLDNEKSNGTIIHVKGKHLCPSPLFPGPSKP

Row | Binder | Kd [1] [nM] | EC50 (read off the curve) [2] [nM] | Kd [3] [nM] | Kd [4] [nM] | Kd [5] [nM] | binding result [6] | binding result [7]
1 | bispecific antibody L4 (anti-CD28 VHH x anti-OX40 Fab, human IgG1 Fc) (bispecific antibody, Three chains: anti-OX40 light chain (I), anti-OX40 heavy chain (II), anti-CD28 VHH-Fc chain (III); also called lead candidate L4) light: not shown heavy: not shown DVQLVESGGGVVQPGGSLRLSCAASGFTFSSYYMSWVRQAPGKGLEWVSTINTDGDFTSYADSVKGRFTISRDNAKNTLYLQMNSLRPEDTALYYCARARGPYSRGSQGHDYRGQGTLVTVSSGGGGSDKTHTCPPCPAPEAAGGPSVFLFPPKPKDTLMISRTPEVTCVVVDVSHEDPEVKFNWYVDGVEVHNAKTKPREEQYNSTYRVVSVLTVLHQDWLNGKEYKCKVSNKALPAPIEKTISKAKGQPREPQVCTLPPSRDELTKNQVSLSCAVKGFYPSDIAVEWESNGQPENNYKTTPPVLDSDGSFFLVSKLTVDKSRWQQGNVFSCSVMHEALHNRFTQKSLSLSPG | 574 | ~1 | 4.1 | 11.9 | 3.7 |  | 
2 | bispecific antibody L1 (anti-CD28 VHH x anti-OX40 Fab, human IgG1 Fc) (bispecific antibody, Three chains: anti-OX40 light chain (I), anti-OX40 heavy chain (II), anti-CD28 VHH-Fc chain (III); also called lead candidate L1) light: not shown heavy: not shown DVQLVESGGGVVQPGGSLRLSCAASGSFFSIDTMDWYRQAPGKQRELVTGVTSGGLTNYADSVKGRFTISIDNAKNTVYLQMNSLRPEDTALYYCSARIRTSGGGGWSTYWGQGTLVTVSSGGGGSDKTHTCPPCPAPEAAGGPSVFLFPPKPKDTLMISRTPEVTCVVVDVSHEDPEVKFNWYVDGVEVHNAKTKPREEQYNSTYRVVSVLTVLHQDWLNGKEYKCKVSNKALPAPIEKTISKAKGQPREPQVCTLPPSRDELTKNQVSLSCAVKGFYPSDIAVEWESNGQPENNYKTTPPVLDSDGSFFLVSKLTVDKSRWQQGNVFSCSVMHEALHNRFTQKSLSLSPG | 924 | ~0.7 | 4.3 | 3.6 | 2.9 |  | 
3 | bispecific antibody L2 (anti-CD28 VHH x anti-OX40 Fab, human IgG1 Fc) (bispecific antibody, Three chains: anti-OX40 light chain (I), anti-OX40 heavy chain (II), anti-CD28 VHH-Fc chain (III); also called lead candidate L2) light: not shown heavy: not shown DVQLVESGGGVVQPGGSLRLSCAASGSFFSIDTMDWYRQAPGKQRELVTGVTSGGLTNYADSVKGRFTISIDNAKNTVYLQMNSLRPEDTALYYCSARIRTSGGGGWSTYWGQGTLVTVSSGGGGSDKTHTCPPCPAPEAAGGPSVFLFPPKPKDTLMISRTPEVTCVVVDVSHEDPEVKFNWYVDGVEVHNAKTKPREEQYNSTYRVVSVLTVLHQDWLNGKEYKCKVSNKALPAPIEKTISKAKGQPREPQVCTLPPSRDELTKNQVSLSCAVKGFYPSDIAVEWESNGQPENNYKTTPPVLDSDGSFFLVSKLTVDKSRWQQGNVFSCSVMHEALHNRFTQKSLSLSPG | 988 | ~1 | 6.9 | 3.23 | 4 |  | 

Results, then the binder that gave them:

Row | Kd [1] [nM] | EC50 (read off the curve) [2] [nM] | Kd [3] [nM] | Kd [4] [nM] | Kd [5] [nM] | binding result [6] | binding result [7] | Binder
4 | 745 | ~1 | 8.1 | 11.3 | 20 |  |  | bispecific antibody L6 (anti-CD28 VHH x anti-OX40 Fab, human IgG1 Fc) (bispecific antibody, Three chains: anti-OX40 light chain (I), anti-OX40 heavy chain (II), anti-CD28 VHH-Fc chain (III); also called lead candidate L6) light: not shown heavy: not shown DVQLVESGGGVVQPGGSLRLSCAASGFTFSSYYMSWVRQAPGKGLEWVSTINTDGDFTSYADSVKGRFTISRDNAKNTLYLQMNSLRPEDTALYYCARARGPYSRGSQGHDYRGQGTLVTVSSGGGGSDKTHTCPPCPAPEAAGGPSVFLFPPKPKDTLMISRTPEVTCVVVDVSHEDPEVKFNWYVDGVEVHNAKTKPREEQYNSTYRVVSVLTVLHQDWLNGKEYKCKVSNKALPAPIEKTISKAKGQPREPQVCTLPPSRDELTKNQVSLSCAVKGFYPSDIAVEWESNGQPENNYKTTPPVLDSDGSFFLVSKLTVDKSRWQQGNVFSCSVMHEALHNRFTQKSLSLSPG
5 | 714 | ~1 | 6.1 | 9.99 | 3.3 |  |  | bispecific antibody L5 (anti-CD28 VHH x anti-OX40 Fab, human IgG1 Fc) (bispecific antibody, Three chains: anti-OX40 light chain (I), anti-OX40 heavy chain (II), anti-CD28 VHH-Fc chain (III); also called lead candidate L5) light: not shown heavy: not shown DVQLVESGGGVVQPGGSLRLSCAASGFTFSSYYMSWVRQAPGKGLEWVSTINTDGDFTSYADSVKGRFTISRDNAKNTLYLQMNSLRPEDTALYYCARARGPYSRGSQGHDYRGQGTLVTVSSGGGGSDKTHTCPPCPAPEAAGGPSVFLFPPKPKDTLMISRTPEVTCVVVDVSHEDPEVKFNWYVDGVEVHNAKTKPREEQYNSTYRVVSVLTVLHQDWLNGKEYKCKVSNKALPAPIEKTISKAKGQPREPQVCTLPPSRDELTKNQVSLSCAVKGFYPSDIAVEWESNGQPENNYKTTPPVLDSDGSFFLVSKLTVDKSRWQQGNVFSCSVMHEALHNRFTQKSLSLSPG
6 | 990 | ~1 | 8.1 | 3.3 | 15 |  |  | bispecific antibody L3 (anti-CD28 VHH x anti-OX40 Fab, human IgG1 Fc) (bispecific antibody, Three chains: anti-OX40 light chain (I), anti-OX40 heavy chain (II), anti-CD28 VHH-Fc chain (III); also called lead candidate L3) light: not shown heavy: not shown DVQLVESGGGVVQPGGSLRLSCAASGSFFSIDTMDWYRQAPGKQRELVTGVTSGGLTNYADSVKGRFTISIDNAKNTVYLQMNSLRPEDTALYYCSARIRTSGGGGWSTYWGQGTLVTVSSGGGGSDKTHTCPPCPAPEAAGGPSVFLFPPKPKDTLMISRTPEVTCVVVDVSHEDPEVKFNWYVDGVEVHNAKTKPREEQYNSTYRVVSVLTVLHQDWLNGKEYKCKVSNKALPAPIEKTISKAKGQPREPQVCTLPPSRDELTKNQVSLSCAVKGFYPSDIAVEWESNGQPENNYKTTPPVLDSDGSFFLVSKLTVDKSRWQQGNVFSCSVMHEALHNRFTQKSLSLSPG
7 |  |  |  |  |  | binds |  | L4 & L6 & L5 CD28 arm VHH (VHH-His) (VHH, Used as VHH-His in the crystal structure with CD28-His; also called L4, L6 & L5 CD28 VHH; not shown: His tag) VHH: DVQLVESGGGVVQPGGSLRLSCAASGFTFSSYYMSWVRQAPGKGLEWVSTINTDGDFTSYADSVKGRFTISRDNAKNTLYLQMNSLRPEDTALYYCARARGPYSRGSQGHDYRGQGTLVTVSS
8 |  |  |  |  |  |  | binds | prototype OX40 arm Fab (Fab, V domains shown, Fab of the OX40 arm of the bispecific CD28-OX40 prototype; also called prototype arm) VH: EVQLVESGGVVVQPGGSLRLSCAASGFTFDDYTMHWVRQAPGKGLEWVSLISWDGGSTYYADSVKGRFTISRDNSKNSLYLQMNSLRTEDTAVYYCARDNLWGYLTYFDYWGQGTLVTVSS VL: QSVLTQPPSVSAAPGQKVTISCSGSSSNIGNNYVSWYQQLPGTAPKLLIYDNNKRPSGIPDRFSGSKSGTSATLGITGLQTGDEADYYCGTWDSSLTAYVFGGGTKLTVL
